Results on one substance are retold here after patent US20220003777A1.

The experiment deals with C1 esterase inhibitor, human plasma-derived (human) (UniProt P05155). Nature of the experiment: Western blot of serially diluted C11NH/BSA probed with 20 µg/mL StcE E447D. (In general: In western blotting, separated proteins are transferred to a membrane and probed.)
C1 esterase inhibitor, human plasma-derived (human), sequence (P05155 23-500 limits assumed): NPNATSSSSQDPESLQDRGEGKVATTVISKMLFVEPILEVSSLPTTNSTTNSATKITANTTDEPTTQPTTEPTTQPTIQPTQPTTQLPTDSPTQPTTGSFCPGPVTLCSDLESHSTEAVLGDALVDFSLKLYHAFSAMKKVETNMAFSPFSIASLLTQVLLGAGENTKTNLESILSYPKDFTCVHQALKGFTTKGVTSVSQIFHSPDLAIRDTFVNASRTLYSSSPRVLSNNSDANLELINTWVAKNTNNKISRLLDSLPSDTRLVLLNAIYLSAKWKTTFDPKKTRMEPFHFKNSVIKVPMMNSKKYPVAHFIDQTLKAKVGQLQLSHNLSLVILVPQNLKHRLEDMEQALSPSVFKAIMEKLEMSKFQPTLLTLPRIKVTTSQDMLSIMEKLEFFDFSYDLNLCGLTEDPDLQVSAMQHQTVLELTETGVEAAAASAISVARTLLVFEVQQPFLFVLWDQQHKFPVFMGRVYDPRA

Turning to “StcE E447D, catalytically inactive point mutant of StcE, N-terminal His-tagged (from UniProt O82882 36-898) (enzyme; other documents disagree on this pair)”, the lowest amount of C11NH with visible signal was 0.03 µg.
